Changes are numbered by the printed parent chain.
T1: human CD98hc (human, UniProt P08195 105-529)
T1 construct: Soluble protein flowed over captured tripod mAbs in SPR; also called huCD98hc; human CD98 heavy chain
T1 sequence: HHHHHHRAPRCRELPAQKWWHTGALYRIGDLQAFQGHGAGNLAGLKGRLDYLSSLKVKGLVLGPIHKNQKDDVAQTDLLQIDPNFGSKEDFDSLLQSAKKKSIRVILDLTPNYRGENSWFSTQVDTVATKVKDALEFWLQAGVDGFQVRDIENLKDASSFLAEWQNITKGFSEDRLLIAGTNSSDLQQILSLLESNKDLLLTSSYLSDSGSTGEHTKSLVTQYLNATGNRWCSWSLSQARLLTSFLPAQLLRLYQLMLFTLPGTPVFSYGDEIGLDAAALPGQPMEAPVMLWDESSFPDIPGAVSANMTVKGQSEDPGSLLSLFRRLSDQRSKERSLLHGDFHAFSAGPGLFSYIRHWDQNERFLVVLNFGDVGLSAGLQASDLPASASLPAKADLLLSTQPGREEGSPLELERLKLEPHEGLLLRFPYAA

B1: BBBB1201 (bispecific antibody)
heavy 1: EVQLVESGGGLVKPGGSLRLSCAASGFTFSSYAMSWVRQAPGKGLEWVASISKGGNTYYPDSVKGRFTISRDNAKNSLYLQMNSLRAEDTAVYYCARGWGDYGWFAYWGQVTLVTVSSASTKGPSVFPLAPSSKSTSGGTAALGCLVKDYFPEPVTVSWNSGALTSGVHTFPAVLQSSGLYSLSSVVTVPSSSLGTQTYICNVNHKPSNTKVDKKVEPKSCDKTHTCPPCPAPEAAGGPSVFLFPPKPKDTLYITREPEVTCVVVSVSHEDPEVKFNWYVDGVEVHNAKTKPREEQYNSTYRVVSVLTVLHQDWLNGKEYKCKVSNKALPAPIEKTISKAKGQPREPQVYVYPPSREEMTKNQVSLTCLVKGFYPSDIAVEWESNGQPENNYKTTPPVLDSDGSFALVSKLTVDKSRWQQGNVFSCSVMHEALHNHYTQKSLSLSPGGGAGGAQVQLVESGGGVVQPGRSLRLSCAASGFTFSSYGMHWVRQAPGKGLEWVAIISYDGSNKHYADSVKGRFTISRDNSKNTLYLQMNSLRAEDTAVYYCARAPSAFYFDYWGQGTLVTVSSGTEGKSSGSGSESKSTDIVMTQSPDSLAVSLGERATINCKSSQSVLFSSNNKNYLAWYQQKPGQPPKLLIYWASTRESGVPDRFSGSGSGTDFTLTISSLQAEDVAVYYCQQYYSTPPTFGQGTKVVIK
light: DIQMTQSPSSLSASVGDRVTITCKASQDINRYLNWFQQKPGKAPKTLIYRANRLLDGVPSRFSGSGSGTDFTLTISSLQPEDFATYYCQQYDEFPLTFGQGTKLEIKRTVAAPSVFIFPPSDEQLKSGTASVVCLLNNFYPREAKVQWKVDNALQSGNSQESVTEQDSKDSTYSLSSTLTLSKADYEKHKVYACEVTHQGLSSPVTKSFNRGEC
heavy 2: EVQLVESGGGLVKPGGSLRLSCAASGFTFSSYAMSWVRQAPGKGLEWVASISKGGNTYYPDSVKGRFTISRDNAKNSLYLQMNSLRAEDTAVYYCARGWGDYGWFAYWGQVTLVTVSSASTKGPSVFPLAPSSKSTSGGTAALGCLVKDYFPEPVTVSWNSGALTSGVHTFPAVLQSSGLYSLSSVVTVPSSSLGTQTYICNVNHKPSNTKVDKKVEPKSCDKTHTCPPCPAPEAAGGPSVFLFPPKPKDTLYITREPEVTCVVVSVSHEDPEVKFNWYVDGVEVHNAKTKPREEQYNSTYRVVSVLTVLHQDWLNGKEYKCKVSNKALPAPIEKTISKAKGQPREPQVYVLPPSREEMTKNQVSLLCLVKGFYPSDIAVEWESNGQPENNYLTWPPVLDSDGSFFLYSKLTVDKSRWQQGNVFSCSVMHEALHNHYTQKSLSLSPG
B2: BBBB1202 (bispecific antibody)
heavy 1: B1 heavy 1 with A555H
light: B1 light
heavy 2: B1 heavy 2

Molecular target: T1, human CD98hc
Assay: SPR ProteOn, mAb captured by anti-Fc, huCD98hc flowed, 1:1 model
Experimental: An Fc capture surface was generated by coupling anti-IgG Fc mAb (Jackson ImmunoResearch) to a GLC chip (BioRad) using the amine-coupling chemistry (BioRad).
The chip surface was regenerated with two 18 second pulses of 100 mM H3PO4 (Sigma) at 100 μL/min. The collected data were processed using ProteOn Manager software V3.1.0.6 (BioRad). First, the data was corrected for background using inter-spots. Then, double reference subtraction of the data was performed by using the buffer injection for analyte injections. The kinetic analysis of the data was performed using a Langmuir 1:1 binding model.

Binder | Kd | koff | kon
B1 | 16.9 nM | 0.006 s⁻¹ | 357000 M⁻¹ s⁻¹
B2 | 52.9 nM | 0.00882 s⁻¹ | 167000 M⁻¹ s⁻¹

Source: patent US20230174669A1 (ALIADA THERAPEUTICS, published 2023)
